Measured values reported in the Human Domainome abundance scans (Beltran et al. 2025).
± gives the uncertainty stated by the source.

B1: CD2-associated protein, residues 271 to 331; numbered along this chain, Q9Y5K6 (parent)
chain: KEYCRTLFAYEGTNEDELTFKEGEIIHLISKETGEAGWWRGELNGKEGVFPDNFAVQINEL

Variants of: B1
Assay: abundance fitness (aPCA) (normalised: wild type 0, dead -1); higher = more abundant; growth selection in yeast, the domain comes from the species named
Details: Homo sapiens

Row | Variant | abundance fitness
1 | KEYCRTLFAYEGTNEDELTFKEGEIIHLISKETTEAGWWRGELNGKEGVFPDNFAVQINEL [G34T] | -0.086 ± 0.095
2 | KEYCRTLFAYEGTNEDELTFKEGEIIHLISKETYEAGWWRGELNGKEGVFPDNFAVQINEL [G34Y] | -0.628 ± 0.19
3 | KEYCRTLFAYEGTNEDELTFKEGEIIHLISKETSEAGWWRGELNGKEGVFPDNFAVQINEL [G34S] | -0.014 ± 0.083
4 | KEYCRTLFAYEGTNEDELTFKEGEIIHLISKETLEAGWWRGELNGKEGVFPDNFAVQINEL [G34L] | -0.477 ± 0.084
5 | KEYCRTLFAYEGTNEDELTFKEGEIIHLISKETFEAGWWRGELNGKEGVFPDNFAVQINEL [G34F] | -0.491 ± 0.13
6 | KEYCRTLFAYEGTNEDELTFKEGEIIHLISKETWEAGWWRGELNGKEGVFPDNFAVQINEL [G34W] | -0.712 ± 0.15
7 | KEYCRTLFAYEGTNEDELTFKEGEIIHLISKETPEAGWWRGELNGKEGVFPDNFAVQINEL [G34P] | -0.181 ± 0.13
8 | KEYCRTLFAYEGTNEDELTFKEGEIIHLISKETIEAGWWRGELNGKEGVFPDNFAVQINEL [G34I] | -0.66 ± 0.22
9 | KEYCRTLFAYEGTNEDELTFKEGEIIHLISKETMEAGWWRGELNGKEGVFPDNFAVQINEL [G34M] | -0.423 ± 0.13
10 | KEYCRTLFAYEGTNEDELTFKEGEIIHLISKETCEAGWWRGELNGKEGVFPDNFAVQINEL [G34C] | -0.064 ± 0.18
11 | KEYCRTLFAYEGTNEDELTFKEGEIIHLISKETVEAGWWRGELNGKEGVFPDNFAVQINEL [G34V] | -0.368 ± 0.078
12 | KEYCRTLFAYEGTNEDELTFKEGEIIHLISKETREAGWWRGELNGKEGVFPDNFAVQINEL [G34R] | -0.26 ± 0.078
13 | KEYCRTLFAYEGTNEDELTFKEGEIIHLISKETDEAGWWRGELNGKEGVFPDNFAVQINEL [G34D] | -0.031 ± 0.17
14 | KEYCRTLFAYEGTNEDELTFKEGEIIHLISKCTGEAGWWRGELNGKEGVFPDNFAVQINEL [E32C] | -0.164 ± 0.048
15 | KEYCRTLFAYEGTNEDELTFKEGEIIHLISKGTGEAGWWRGELNGKEGVFPDNFAVQINEL [E32G] | -0.261 ± 0.057
16 | KEYCRTLFAYEGTNEDELTFKEGEIIHLISKKTGEAGWWRGELNGKEGVFPDNFAVQINEL [E32K] | -0.044 ± 0.07
17 | KEYCRTLFAYEGTNEDELTFKEGEIIHLISKLTGEAGWWRGELNGKEGVFPDNFAVQINEL [E32L] | -0.481 ± 0.048
18 | KEYCRTLFAYEGTNEDELTFKEGEIIHLISKQTGEAGWWRGELNGKEGVFPDNFAVQINEL [E32Q] | -0.139 ± 0.058
19 | KEYCRTLFAYEGTNEDELTFKEGEIIHLISKWTGEAGWWRGELNGKEGVFPDNFAVQINEL [E32W] | -0.116 ± 0.07
20 | KEYCRTLFAYEGTNEDELTFKEGEIIHLISKITGEAGWWRGELNGKEGVFPDNFAVQINEL [E32I] | -0.18 ± 0.072
21 | KEYCRTLFAYEGTNEDELTFKEGEIIHLISKYTGEAGWWRGELNGKEGVFPDNFAVQINEL [E32Y] | -0.167 ± 0.053
22 | KEYCRTLFAYEGTNEDELTFKEGEIIHLISKRTGEAGWWRGELNGKEGVFPDNFAVQINEL [E32R] | -0.222 ± 0.049

Row | Variant | abundance fitness
23 | KEYCRTLFAYEGTNEDELTFKEGEIIHLISKTTGEAGWWRGELNGKEGVFPDNFAVQINEL [E32T] | -0.111 ± 0.05
24 | KEYCRTLFAYEGTNEDELTFKEGEIIHLISKSTGEAGWWRGELNGKEGVFPDNFAVQINEL [E32S] | -0.091 ± 0.039
25 | KEYCRTLFAYEGTNEDELTFKEGEIIHLISKPTGEAGWWRGELNGKEGVFPDNFAVQINEL [E32P] | -0.553 ± 0.072
26 | KEYCRTLFAYEGTNEDELTFKEGEIIHLISKHTGEAGWWRGELNGKEGVFPDNFAVQINEL [E32H] | -0.202 ± 0.049
27 | KEYCRTLFAYEGTNEDELTFKEGEIIHLISKDTGEAGWWRGELNGKEGVFPDNFAVQINEL [E32D] | -0.003 ± 0.062
28 | KEYCRTLFAYEGTNEDELTFKEGEIIHLISKMTGEAGWWRGELNGKEGVFPDNFAVQINEL [E32M] | -0.307 ± 0.076
29 | KEYCRTLFAYEGTNEDELTFKEGEIIHLISKVTGEAGWWRGELNGKEGVFPDNFAVQINEL [E32V] | -0.152 ± 0.049
30 | KEYCRTLFAYEGTNEDELTFKEGEIIHLISKNTGEAGWWRGELNGKEGVFPDNFAVQINEL [E32N] | 0.085 ± 0.064
31 | KEYCRTLFAYEGTNEDELTFKEGEIIHLISKETGEQGWWRGELNGKEGVFPDNFAVQINEL [A36Q] | 0.036 ± 0.12
32 | KEYCRTLFAYEGTNEDELTFKEGEIIHLISKETGEPGWWRGELNGKEGVFPDNFAVQINEL [A36P] | 0.114 ± 0.09
33 | KEYCRTLFAYEGTNEDELTFKEGEIIHLISKETGEDGWWRGELNGKEGVFPDNFAVQINEL [A36D] | -0.082 ± 0.11
34 | KEYCRTLFAYEGTNEDELTFKEGEIIHLISKETGEMGWWRGELNGKEGVFPDNFAVQINEL [A36M] | -0.18 ± 0.14
35 | KEYCRTLFAYEGTNEDELTFKEGEIIHLISKETGEFGWWRGELNGKEGVFPDNFAVQINEL [A36F] | -0.158 ± 0.14
36 | KEYCRTLFAYEGTNEDELTFKEGEIIHLISKETGEEGWWRGELNGKEGVFPDNFAVQINEL [A36E] | -0.13 ± 0.091
37 | KEYCRTLFAYEGTNEDELTFKEGEIIHLISKETGECGWWRGELNGKEGVFPDNFAVQINEL [A36C] | -0.147 ± 0.11
38 | KEYCRTLFAYEGTNEDELTFKEGEIIHLISKETGEKGWWRGELNGKEGVFPDNFAVQINEL [A36K] | -0.008 ± 0.094
39 | KEYCRTLFAYEGTNEDELTFKEGEIIHLISKETGERGWWRGELNGKEGVFPDNFAVQINEL [A36R] | -0.054 ± 0.046
40 | KEYCRTLFAYEGTNEDELTFKEGEIIHLISKETGEGGWWRGELNGKEGVFPDNFAVQINEL [A36G] | -0.235 ± 0.051
41 | KEYCRTLFAYEGTNEDELTFKEGEIIHLISKETGETGWWRGELNGKEGVFPDNFAVQINEL [A36T] | -0.044 ± 0.066
42 | KEYCRTLFAYEGTNEDELTFKEGEIIHLISKETGEHGWWRGELNGKEGVFPDNFAVQINEL [A36H] | -0.199 ± 0.15
43 | KEYCRTLFAYEGTNEDELTFKEGEIIHLISKETGELGWWRGELNGKEGVFPDNFAVQINEL [A36L] | -0.305 ± 0.072
44 | KEYCRTLFAYEGTNEDELTFKEGEIIHLISKETGEIGWWRGELNGKEGVFPDNFAVQINEL [A36I] | -0.193 ± 0.17
